From publication PMC9750918, “Diprenylated cyclodipeptide production by changing the prenylation sequence of the nature’s synthetic machinery” (Applied Microbiology and Biotechnology, 2022)

T1: 7-DMATS (Aspergillus fumigatus, UniProt Q4WYG3)
T1 construct: gene etpPT; 7-DMATS-His6 (C-terminal tag kept), plasmid pLW40, expressed in E. coli, Ni-NTA purified
T1 sequence (Q4WYG3 1-472): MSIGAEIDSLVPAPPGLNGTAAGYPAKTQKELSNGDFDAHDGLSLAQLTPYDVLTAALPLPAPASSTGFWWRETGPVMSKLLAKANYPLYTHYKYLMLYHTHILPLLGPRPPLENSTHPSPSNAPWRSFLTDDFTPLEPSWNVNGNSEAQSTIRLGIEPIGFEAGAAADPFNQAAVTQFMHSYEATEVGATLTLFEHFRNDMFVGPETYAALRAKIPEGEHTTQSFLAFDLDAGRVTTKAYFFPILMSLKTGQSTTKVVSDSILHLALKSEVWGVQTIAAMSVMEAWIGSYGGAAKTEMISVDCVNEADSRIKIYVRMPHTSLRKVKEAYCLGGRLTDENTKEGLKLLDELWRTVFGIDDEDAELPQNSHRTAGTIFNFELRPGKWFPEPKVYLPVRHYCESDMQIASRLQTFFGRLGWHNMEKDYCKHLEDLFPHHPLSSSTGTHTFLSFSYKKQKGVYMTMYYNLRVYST

T2: 6-DMATSSa (Streptomyces ambofaciens, UniProt A3KIV6)
T2 construct: gene SAM23877_0730; 6-DMATSSa-His6 (C-terminal tag kept), plasmid pJW12, expressed in E. coli, Ni-NTA purified
T2 sequence (A3KIV6 1-375): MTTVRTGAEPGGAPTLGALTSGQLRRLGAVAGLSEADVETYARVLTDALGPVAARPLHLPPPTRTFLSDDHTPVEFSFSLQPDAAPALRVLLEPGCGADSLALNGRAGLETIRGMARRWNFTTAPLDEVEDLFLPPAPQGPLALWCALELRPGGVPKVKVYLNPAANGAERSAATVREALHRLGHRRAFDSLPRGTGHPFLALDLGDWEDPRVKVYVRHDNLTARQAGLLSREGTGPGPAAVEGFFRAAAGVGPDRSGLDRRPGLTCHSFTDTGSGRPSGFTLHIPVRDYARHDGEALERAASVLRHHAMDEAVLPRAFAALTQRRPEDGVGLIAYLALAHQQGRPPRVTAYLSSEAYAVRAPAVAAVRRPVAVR

B1: EchPT1 (Aspergillus ruber) (protein)
chain: MPSEVLTSYYDYPTHDQEAWWRDTGPLFGRFLKGAGYDVHTQYQYLVFFIKNILPSLGPYPARWRSTITPTGLPIEYSLNFQLNSRPLLRIGFEPLSRFSGTPQDPYNKIAAADLLNQLSKLQLHEFDTQLFNHFTNEFELSKSESESLQKQGGINGKSTVRSQTAFGFDLKGGRVAVKGYAFAGLKNRATGTPVGQLISNSIRNLEPQMHCWDSFSILNSYMEESDGWNEYSFVSWDCVDIERSRLKLYGVHNAVTWDKVKEMWTLGGRIENNATIKTGLELLQHMWSLLQINEGDRDYKGGFAADNGGKTLPIIWNYELNKGSPHPAPKFYFPVHGENDLQVSKSISEFFTHLGWQDHARQYPHLLRQIYPNQNISQTERLQAWISFAYNERTGPYLSVYYYSAERPPWGSDQVK
notes: His6-EchPT1 (N-terminal tag kept), plasmid pVW90, expressed in E. coli, Ni-NTA purified

Legend:
[1] = molecular target: T1, 7-DMATS; experiment: LCMS prenylation assay, conversion yield; type: biochemical; settings: 1 mM substrate; 1 mM DMAPP; 5 mM CaCl2; 4 µg protein in 50 µL; pH 7.5; 37 °C; 16 h; C6- and C7-prenylation
[2] = molecular target: T2, 6-DMATSSa; experiment: LCMS prenylation assay, conversion yield; type: biochemical; settings: 1 mM substrate; 1 mM DMAPP; 5 mM CaCl2; 4 µg protein in 50 µL; pH 7.5; 37 °C; 16 h; C6-prenylation
[3] = substrate: CC(C)=CCOP(=O)(O)OP(=O)(O)O; experiment: HPLC prenylation assay, Michaelis-Menten fit; type: biochemical, Aspergillus ruber; settings: 1 mM C4-prenylated cyclo-L-Trp-L-Pro (3), 5 mM CaCl2, pH 7.5, 37 °C, 30 min
Excerpt: (§1) HPLC prenylation assay, Michaelis-Menten fit on EchPT1

[4] = substrate: CC(C)=CCc1ccc2c(C[C@@H]3NC(=O)[C@@H]4CCCN4C3=O)c[nH]c2c1; experiment: HPLC prenylation assay, Michaelis-Menten fit; type: biochemical, Aspergillus ruber; settings: 1 mM DMAPP, pH 7.5, 37 °C, 30 min, N1-prenylation
Excerpt: as §1

[5] = substrate: CC(C)=CCc1cccc2[nH]cc(C[C@@H]3NC(=O)[C@@H]4CCCN4C3=O)c12; experiment: HPLC prenylation assay, Michaelis-Menten fit; type: biochemical, Aspergillus ruber; settings: 1 mM DMAPP, pH 7.5, 37 °C, 30 min
Excerpt: as §1

[6] = substrate: CC(C)=CCc1ccc2[nH]cc(C[C@@H]3NC(=O)[C@@H]4CCCN4C3=O)c2c1; experiment: HPLC prenylation assay, Michaelis-Menten fit; type: biochemical, Aspergillus ruber; settings: 1 mM DMAPP, pH 7.5, 37 °C, 35 min
Excerpt: as §1

Row | Molecule | conversion yield [1] [%] | conversion yield [2] [%] | Km [3] [µM] | kcat [3] [s⁻¹] | kcat/Km [3] [M⁻¹ s⁻¹] | Km [4] [µM] | kcat [4] [s⁻¹] | kcat/Km [4] [M⁻¹ s⁻¹] | Km [5] [µM] | kcat [5] [s⁻¹] | kcat/Km [5] [M⁻¹ s⁻¹] | Km [6] [µM] | kcat [6] [s⁻¹] | kcat/Km [6] [M⁻¹ s⁻¹]
1 | O=C1N[C@@H](Cc2c[nH]c3ccccc23)C(=O)N2CCC[C@@H]12 [compound 1, cyclo-L-Trp-L-Pro] | 11.6 ± 1.4 | 29.9 ± 0.6 | – | – | – | – | – | – | – | – | – | – | – | –
2 | B1 | – | – | 100 ± 10 | 0.25 ± 0.02 | 2500 | 50 ± 7 | 0.007 ± 0.0004 | 140 | 60 ± 10 | 0.21 ± 0.02 | 3500 | 80 ± 20 | 0.03 ± 0.004 | 375
